Measured values taken from publication PMC6123711, “Conformational signatures in β-arrestin2 reveal natural biased agonism at a G-protein-coupled receptor” (Communications Biology, 2018).
Marks after values point to notes of the source that are not given here.

Key:
[1] = system: β-arrestin2–Galr2 interaction (Galr2); experiment: β-Arrestin2 recruitment using NanoBit technology; format: cell-based, human; details: for Log(τ/KA), β-Arrestin2: HEK293 cells, luminescence at 5 min after agonist, operational model (Eq. 2)
Excerpt: The β-arrestin recruitment assays were developed based on a structural complementation assay using NanoBit technology. Briefly, NanoBit technology is a system that basically consists of Nano luciferase (Nluc), which is a small protein that catalyzes a bright luminescent reaction. To create a complementation system, Nluc was separated into two subunits that individually produce very little enzymatic activity. […] Because of this low affinity for each other, these two fragments can bind when they are in close proximity. The interaction between the LgBit and the SmBit can be driven by the interactions of the fusion partners, allowing them to study protein–protein interaction in live cells. As the interaction is reversible, the association and dissociation can be monitored. There is no lag time in the loss of luminescence, and so the immediate detection allows for accurate assessment of temporal dynamics. […] To accurately monitor β-arrestin recruitment, four plasmid combinations between LgBit and SmBit with the fusion partners Galr2 and β-arrestins were screened. The plasmid combination with the highest luminescence signal was chosen for further studies (Fig. 2a, Supplementary Fig. 1). Using data points at 5 min after ligand stimulation, we obtained dose–response curves that corresponded to β-arrestin1/2 recruitment (Fig. 2d, e, Supplementary Fig. 2).
Fig. 2 The effect of different endogenous ligands in β-arrestin1/2 recruitment. a Schematic representation of the structural complementation assay used to monitor β-arrestin1/2–Galr2 interactions. Kinetic traces of β-arrestin1 (b) and β-arrestin2 (c) recruitment after Galr2 activation with 1 μM of three different agonists. Dose–response curves for recruitment of β-arrestin1 (d), and β-arrestin2 (e). Luminescence signal intensity obtained at 5 min after agonist stimulation was measured. […] The results are expressed as mean ± s.e.m. of three experiments performed in triplicate; each triplicate was averaged before calculating the s.e.m. The arrows indicate the time at which the cells were treated with the different ligands
(§1) Quantification of bias between each pathway was performed using Galanin as a reference ligand. All incubations for the different signaling assays were performed in serum-free medium to prevent peptide degradation.
HEK293 cells were obtained from the American Type Culture Collection (ATCC, CRL-1573; Manassas, VA, USA). […] After a 10-min incubation, 25 μl substrate (furimazine) was added and once every minute subsequent luminescence measurements were taken for 10 min for signal stabilization. A total of 10 μl ligand was then added to each well and luminescence measurements were recorded immediately and once every minute for 1 h (Synergy 2 Multi-Mode Microplate Reader BioTek, Winooski, VT, USA).

[2] = system: Galr2; experiment: Quantification of biased agonism between two pathways (operational model); format: cell-based, human; details: for ΔΔLog(τ/KA) (bias factor), Gαq-dependent-pErk1/2/β-arrestin1: Gαq-dependent-pErk1/2 vs β-arrestin1; for ΔΔLog(τ/KA) (bias factor), SRE-Luc/clathrin:β-arrestin2: SRE-Luc vs clathrin:β-arrestin2; for ΔΔLog(τ/KA) (bias factor), SRE-Luc/β-arrestin1: SRE-Luc vs β-arrestin1; for ΔΔLog(τ/KA) (bias factor), SRE-Luc/β-arrestin2: SRE-Luc vs β-arrestin2; for ΔΔLog(τ/KA) (bias factor), Total inositol phosphate/clathrin:β-arrestin2: total inositol phosphate vs clathrin:β-arrestin2; for ΔΔLog(τ/KA) (bias factor), Total inositol phosphate/β-arrestin1: total inositol phosphate vs β-arrestin1; for ΔΔLog(τ/KA) (bias factor), Total inositol phosphate/β-arrestin2: total inositol phosphate vs β-arrestin2; for ΔΔLog(τ/KA) (bias factor), β-Arrestin-dependent-pErk1/2/β-arrestin2: β-arrestin-dependent-pErk1/2 vs β-arrestin2
Description: To determine whether differential signaling at Galr2 (Figs. 2 and 5) may be translated into biased agonism, we used the operational model of agonism (Eq. 2) to calculate the logarithm of the transduction coefficient (log(τ/KA)) for each agonist at each pathway (Table 1)[4]. We used Galanin as a reference ligand during all experiments. […] We also calculated bias factors for G-protein-dependent pErk1/2 and β-arrestins.
as §1
To calculate biased factors and compare agonist profiles, the dose–response data were fit to the following form of the operational model of agonism:[42]2 Y=Basal+Em-basalτ/KA^n[A]^n/[A]^nτ/KA^n+1+[A]/KA^n where Em is the maximal possible response of the system, Basal is the basal level of response, KA represents the equilibrium dissociation constant of the agonist (A), and τ is an index of the signaling efficacy of the agonist that is defined as RT/KE. RT is the total number of receptors, KE is the coupling efficiency of each agonist-occupied receptor, and n is the slope of the transducer function that links occupancy to response. One assumption of the analysis is that the transduction machinery used for a given cellular pathway are the same for all agonists, such that the Em and transducer slope (n) are shared between agonists. The data for all compounds for each pathway were fit globally, to determine values of KA and τ. Biased agonism was quantified as previously described. […] The relative bias can then be calculated for each agonist at the two different signaling pathways by subtracting the Δlog(τ/KA) of one pathway from the other to give a ΔΔlog(τ/KA) value, which is a measure of bias. […] All transduction ratios (log(τ/KA)) parameters were estimated as logarithms. All results were expressed as mean ± s.e.m. values. We performed a Brown–Forsythe test (Graph Pad Prism 7.0) to assure ourselves of equal variances between the compared parameters.

[3] = mean ± s.e.m. of three experiments in triplicate
[4] = reference agonist Galanin, mean ± s.e.m. of three experiments in triplicate

Molecule | Log(τ/KA), β-Arrestin2 [1, 3] | ΔLog(τ/KA), β-Arrestin2 ([1]; normalized to Galanin (reference agonist), in parenthesis, mean ± s.e.m. of three experiments in triplicate) | overall signaling at Galr2 ([2]; G-protein and β-arrestin1/2) | ΔΔLog(τ/KA) (bias factor), Gαq-dependent-pErk1/2/β-arrestin1 [2, 4] | ΔΔLog(τ/KA) (bias factor), Gαq-dependent-pErk1/2/β-arrestin2 ([2]; Gαq-dependent-pErk1/2 vs β-arrestin2, reference agonist Galanin, mean ± s.e.m. of three experiments in triplicate) | ΔΔLog(τ/KA) (bias factor), SRE-Luc/clathrin:β-arrestin2 [2, 4] | ΔΔLog(τ/KA) (bias factor), SRE-Luc/β-arrestin1 [2, 4] | ΔΔLog(τ/KA) (bias factor), SRE-Luc/β-arrestin2 [2, 4] | ΔΔLog(τ/KA) (bias factor), Total inositol phosphate/clathrin:β-arrestin2 [2, 4] | ΔΔLog(τ/KA) (bias factor), Total inositol phosphate/β-arrestin1 [2, 4] | ΔΔLog(τ/KA) (bias factor), Total inositol phosphate/β-arrestin2 [2, 4] | ΔΔLog(τ/KA) (bias factor), β-Arrestin-dependent-pErk1/2/β-arrestin2 [2, 4] | agonism in β-arrestin2 recruitment ([1]; dose–response, data at 5 min after ligand stimulation, compared with Galanin) | biased agonism, pErk1/2 vs β-arrestin isoforms ([2]; Gαq-dependent pErk1/2 vs the two β-arrestin isoforms, relative to Galanin) | biased agonism, β-arrestin-dependent pErk1/2 vs β-arrestin2 recruitment ([2]; relative to Galanin) | biased agonism ([2]; relative to Galanin, Gαq-protein-dependent signaling vs β-arrestins and β-arrestin2–clathrin)
Galanin [reference compound] | 7.20 ± 0.02 | 0.00 ± 0.02 | robust signaling toward G-protein and β-arrestin1/2 | 0.00 ± 0.22 | 0.00 ± 0.04 | 0.00 ± 0.17 | 0.00 ± 0.002 | 0.00 ± 0.02 | 0.00 ± 0.19 | 0.00 ± 0.03 | 0.00 ± 0.05 | 0.00 ± 0.38 |  |  |  | 
Spexin (peptide, UniProt Q9BT56 27-116, looked up, Spexin, endogenous peptide ligand of Galr2 and Galr3; synthesized by AnyGen) Spexin: APQRLLERRNWTPQAMLYLKGAQGRRFISDQSRRKDLSDRPLPERRSPNPQLLTIPEAATILLASLQKSPEDEEKNFDQTRFLEDSLLNW | 6.40 ± 0.03 |  |  | 1.10 ± 0.29^b |  | 1.88 ± 0.07^b | 0.63 ± 0.06^b | 0.77 ± 0.02^b | 1.84 ± 0.12^b | 0.60 ± 0.09^b | 0.73 ± 0.09^b | 1.40 ± 0.16^a | partial agonists | biased signaling toward Gαq-dependent pErk1/2 over the two β-arrestin isoforms | biased agonism was also detected toward β-arrestin-dependent pErk1/2 over β-arrestin2 recruitment | biased agonism toward Gαq-protein-dependent signaling over β-arrestins and β-arrestin2–clathrin interactions
